Results from the supplement of paper PMC7877785.
± gives the uncertainty stated by the source.

Test: self-splicing fitness, log relative to wild type (ln ratio); higher = more splicing; Tetrahymena group I intron in knt gene, E. coli kanamycin selection, DiMSum; sequences stand for … in CUCUCU…GGAGGGAAAAGUUAUCAGGCAUGCACCUGGUAGCUAGUCUUUAAACCAAUAGAUUGCAUCGGUUUAAAAGGCAAGACCGUCAAAUUGCGGGAAAGGGGUCAACAGCCGUUCAGUACCAAGUCUCAGGGGAAACUUUGAGAUGGCCUUGCAAAGGGUAUGGUAAUAAGCUGACGGACAUGGUCCUAACCACGCAGCCAAGUCCUAAGUCAACAGAUCUUCUGUUGAUAUGGAUGCAGUUCACAGACUAAAUGUCGGUCGGGGAAGAUGUAUUCUUCUCAUAAGAUAUAGUCGGACCUCUCCUUAAUGGGAGCUAGCGGAUGAAGUGAUGCAACACUGGAGCCGCUGGGAACUAAUUUGUAUGCGAAAGUAUAUUGAUUAGUUUUGGAGUACUCGUGGUCG
Outline: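 Six replicate transformations of E. coli BL21(DE3) with a pET-22b(+) library were grown overnight at 37°C or 30°C. The library randomised all eight P1ex-region intron nucleotides, the intron lying in the knt kanamycin-resistance gene, and plates were LB agar with or without 25 μg/mL kanamycin plus 100 μg/mL carbenicillin, 50 μM IPTG and 0.2% rhamnose. Pooled colonies were amplicon-sequenced on an Illumina HiSeq 2500, and fitness is the DiMSum error-weighted combination of wild-type-normalised replicate fold changes, kanamycin versus none.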

Sequence	self-splicing fitness (ln) (30 °C)	self-splicing fitness (ln) (37 °C)
CCUAAGCAAUAUUACGAGUG	-0.812 ± 0.045	-0.282 ± 0.073
CCUAAGCAAUAUUACGAUAU	-3.87 ± 0.32	-2.6 ± 0.21
CCUAAGCAAUAUUACGCACC	-3.09 ± 0.27	-3.03 ± 0.28
CCUAAGCAAUAUUACGCCUG	-3.62 ± 0.3	-2.27 ± 0.3
CCUAAGCAAUAUUACGCGGC	-1.89 ± 0.33	-2.13 ± 0.42
CCUAAGCAAUAUUACGCUGC	–	-3.02 ± 0.34
CCUAAGCAAUAUUACGCUUU	-3.09 ± 0.23	-2.17 ± 0.26
CCUAAGCAAUAUUACGGAAA	–	-2.27 ± 0.27
CCUAAGCAAUAUUACGGAUU	-4.68 ± 0.28	-2.46 ± 0.23
CCUAAGCAAUAUUACGGCGA	-2.84 ± 0.31	-1.95 ± 0.27
CCUAAGCAAUAUUACGUACA	-3.4 ± 0.5	-2.9 ± 0.38
CCUAAGCAAUAUUACGUAUC	-3.83 ± 0.32	-2.33 ± 0.26
CCUAAGCAAUAUUACGUCGA	-2.67 ± 0.23	-2.77 ± 0.25
CCUAAGCAAUAUUACGUGCA	-3.34 ± 0.18	-1.91 ± 0.17
CCUAAGCAAUAUUACGUGUG	-1.83 ± 0.057	-1.49 ± 0.075
CCUAAGCAAUAUUACGUUAA	-3.22 ± 0.4	-2.49 ± 0.22
CCUAAGCAAUAUUACGUUAC	-4.69 ± 0.36	-3.03 ± 0.32
CCUCAGCAAUAUUACGAACG	-0.86 ± 0.062	-0.285 ± 0.096
CCUCAGCAAUAUUACGACGC	-3.56 ± 0.4	-2.43 ± 0.45
CCUCAGCAAUAUUACGAGUU	-2.31 ± 0.1	-1.11 ± 0.093
CCUCAGCAAUAUUACGAUGA	-2.63 ± 0.21	-2.8 ± 0.28
CCUCAGCAAUAUUACGAUGU	-3.41 ± 0.15	-1.3 ± 0.12
CCUCAGCAAUAUUACGAUUG	-1.31 ± 0.068	-0.558 ± 0.084
CCUCAGCAAUAUUACGAUUU	-4.46 ± 0.22	-1.39 ± 0.15
CCUCAGCAAUAUUACGCACG	-2.46 ± 0.17	-1.06 ± 0.18

Sequence	self-splicing fitness (ln) (30 °C)	self-splicing fitness (ln) (37 °C)
CCUCAGCAAUAUUACGCCAU	-2.88 ± 0.35	-1.8 ± 0.18
CCUCAGCAAUAUUACGCCCG	-0.527 ± 0.15	-0.422 ± 0.18
CCUCAGCAAUAUUACGCCUU	-3.95 ± 0.3	-2.17 ± 0.22
CCUCAGCAAUAUUACGCUGU	-2.84 ± 0.17	-2.05 ± 0.25
CCUCAGCAAUAUUACGGAGG	-4.45 ± 0.24	-2.33 ± 0.21
CCUCAGCAAUAUUACGGCCA	-2.68 ± 0.33	-2.62 ± 0.33
CCUCAGCAAUAUUACGGCGA	-3.72 ± 0.31	-2.79 ± 0.22
CCUCAGCAAUAUUACGGUAU	-4.53 ± 0.24	-2.52 ± 0.15
CCUCAGCAAUAUUACGUCAG	-2.92 ± 0.097	-1.73 ± 0.1
CCUCAGCAAUAUUACGUCUG	-3.75 ± 0.23	-1.79 ± 0.19
CCUCAGCAAUAUUACGUGAC	-3.76 ± 0.22	-2.66 ± 0.24
CCUCAGCAAUAUUACGUGAU	-2.84 ± 0.2	-2.71 ± 0.43
CCUGAGCAAUAUUACGAAGC	-2.38 ± 0.14	-2.58 ± 0.3
CCUGAGCAAUAUUACGACAU	-3.785 ± 0.027	-2.87 ± 0.042
CCUGAGCAAUAUUACGACCA	-2.89 ± 0.44	-2.06 ± 0.38
CCUGAGCAAUAUUACGAGGC	-3.18 ± 0.43	-1.54 ± 0.26
CCUGAGCAAUAUUACGAUAG	-1.55 ± 0.085	-0.775 ± 0.089
CCUGAGCAAUAUUACGAUCC	-4.29 ± 0.47	-2.96 ± 0.48
CCUGAGCAAUAUUACGAUCG	-3.71 ± 0.27	-3.46 ± 0.3
CCUGAGCAAUAUUACGCAAC	-2.76 ± 0.33	-1.78 ± 0.27
CCUGAGCAAUAUUACGCAAU	-3.31 ± 0.19	-2.68 ± 0.24
CCUGAGCAAUAUUACGCACG	-3.16 ± 0.47	-2.09 ± 0.37
CCUGAGCAAUAUUACGCACU	-4.16 ± 0.3	-2.8 ± 0.24
CCUGAGCAAUAUUACGCAGU	-2.91 ± 0.2	-2.84 ± 0.28
CCUGAGCAAUAUUACGCCGU	-3.18 ± 0.45	-1.61 ± 0.39

Sequence	self-splicing fitness (ln) (30 °C)	self-splicing fitness (ln) (37 °C)
CCUGAGCAAUAUUACGCGUA	-3.77 ± 0.34	-2.33 ± 0.23
CCUGAGCAAUAUUACGCGUC	-2.89 ± 0.27	-3.02 ± 0.4
CCUGAGCAAUAUUACGCUCC	–	-3.8 ± 0.33
CCUGAGCAAUAUUACGCUUA	-2.31 ± 0.24	-2.27 ± 0.39
CCUGAGCAAUAUUACGGAGG	-3.56 ± 0.24	-2.54 ± 0.26
CCUGAGCAAUAUUACGGAUG	-1.52 ± 0.057	-1.31 ± 0.078
CCUGAGCAAUAUUACGGGUU	-4.27 ± 0.34	-2.56 ± 0.31
CCUGAGCAAUAUUACGGUCA	-2.92 ± 0.24	-2.46 ± 0.33
CCUGAGCAAUAUUACGUAAU	-2.24 ± 0.2	-2.6 ± 0.25
CCUGAGCAAUAUUACGUAUA	-3.53 ± 0.23	-2.51 ± 0.24
CCUGAGCAAUAUUACGUGGC	-3.15 ± 0.24	–
CCUGAGCAAUAUUACGUUUA	-3.15 ± 0.15	-1.57 ± 0.17
CCUUAGCAAUAUUACGAGGU	-4.03 ± 0.15	-2.52 ± 0.15
CCUUAGCAAUAUUACGAGUG	-1.07 ± 0.082	0.122 ± 0.11
CCUUAGCAAUAUUACGAUAG	-2.77 ± 0.12	-2.37 ± 0.18
CCUUAGCAAUAUUACGAUCA	–	-2.51 ± 0.38
CCUUAGCAAUAUUACGCCAA	-2.7 ± 0.34	-0.755 ± 0.31
CCUUAGCAAUAUUACGCCUA	-2.69 ± 0.48	-1.4 ± 0.35
CCUUAGCAAUAUUACGGCAC	-3.69 ± 0.29	-2.71 ± 0.44
CCUUAGCAAUAUUACGGCCU	–	-0.938 ± 0.34
CCUUAGCAAUAUUACGGCUA	-2.52 ± 0.45	-1.75 ± 0.37
CCUUAGCAAUAUUACGGGCU	-4.07 ± 0.28	-2.87 ± 0.22
CCUUAGCAAUAUUACGGGGU	-4.43 ± 0.28	-2.08 ± 0.19
CCUUAGCAAUAUUACGUAAC	-4.41 ± 0.22	-2.41 ± 0.18
CCUUAGCAAUAUUACGUAUC	-4.15 ± 0.27	-2.17 ± 0.26

Sequence	self-splicing fitness (ln) (30 °C)	self-splicing fitness (ln) (37 °C)
CCUUAGCAAUAUUACGUGUG	-1.61 ± 0.063	-0.595 ± 0.078
CGAAAGCAAUAUUACGACUA	-1.51 ± 0.14	-0.539 ± 0.13
CGAAAGCAAUAUUACGAGGU	–	-1.64 ± 0.3
CGAAAGCAAUAUUACGAGUU	-3.72 ± 0.44	-2.21 ± 0.23
CGAAAGCAAUAUUACGCAUC	–	-2.75 ± 0.36
CGAAAGCAAUAUUACGCAUU	-4.46 ± 0.42	-2.94 ± 0.37
CGAAAGCAAUAUUACGCCGU	-2.98 ± 0.16	-0.862 ± 0.12
CGAAAGCAAUAUUACGCGAA	-1.82 ± 0.24	-2.02 ± 0.3
CGAAAGCAAUAUUACGCUAA	-3.88 ± 0.4	-1.53 ± 0.21
CGAAAGCAAUAUUACGCUAC	-2.53 ± 0.3	–
CGAAAGCAAUAUUACGGAGC	-4.16 ± 0.25	-2.22 ± 0.16
CGAAAGCAAUAUUACGGCUG	0.127 ± 0.11	0.181 ± 0.13
CGAAAGCAAUAUUACGGUAU	-3.81 ± 0.29	-1.2 ± 0.19
CGAAAGCAAUAUUACGGUUA	-1.85 ± 0.12	-2.11 ± 0.1
CGAAAGCAAUAUUACGUCCC	-0.693 ± 0.14	-0.0504 ± 0.23
CGAAAGCAAUAUUACGUGGU	-3.92 ± 0.14	-2.11 ± 0.13
CGAAAGCAAUAUUACGUUUC	-3.81 ± 0.2	-2.15 ± 0.16
CGACAGCAAUAUUACGAAAC	-3.49 ± 0.27	-2.39 ± 0.25
CGACAGCAAUAUUACGACCA	-0.898 ± 0.1	-0.397 ± 0.12
CGACAGCAAUAUUACGACUG	-1.32 ± 0.089	-0.0407 ± 0.14
CGACAGCAAUAUUACGAGCC	-3.59 ± 0.22	-1.68 ± 0.26
CGACAGCAAUAUUACGAGGC	-1.34 ± 0.13	-2.49 ± 0.31
CGACAGCAAUAUUACGAUUA	-1.99 ± 0.12	-0.873 ± 0.1
